This is an account of results in US20260098270, “MULTIVALENT TRIDENT […] FOR MOLECULAR RECOGNITION, METHODS OF MAKING AND USES […]” (MCMASTER UNIVERSITY, published 2026).

The Kd is the concentration at which binding is half-saturated. Read a low Kd as tighter binding.

Series [1] concerns the target T1, Amylase (UniProt P0DUB6 P0DUB6:16-511).
T1 sequence: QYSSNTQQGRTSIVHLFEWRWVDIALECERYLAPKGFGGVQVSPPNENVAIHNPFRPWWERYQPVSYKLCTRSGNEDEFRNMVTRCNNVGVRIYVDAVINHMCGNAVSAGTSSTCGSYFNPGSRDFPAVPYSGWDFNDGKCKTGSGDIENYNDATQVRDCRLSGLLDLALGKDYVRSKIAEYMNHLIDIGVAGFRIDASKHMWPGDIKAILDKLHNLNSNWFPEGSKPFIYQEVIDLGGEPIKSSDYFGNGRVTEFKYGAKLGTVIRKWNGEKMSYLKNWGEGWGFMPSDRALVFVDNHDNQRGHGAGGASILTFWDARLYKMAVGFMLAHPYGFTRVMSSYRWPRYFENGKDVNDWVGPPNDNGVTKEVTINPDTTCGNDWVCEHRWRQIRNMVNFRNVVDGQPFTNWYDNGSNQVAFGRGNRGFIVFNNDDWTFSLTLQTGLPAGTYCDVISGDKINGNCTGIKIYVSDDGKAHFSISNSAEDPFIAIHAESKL
The series can be described thus: ELONA. The following applies: tags: Sigma-Aldrich A1031.

Series [2] has as its target Spike RBD of seasonal coronavirus OC43 (Human coronavirus OC43, UniProt P36334 P36334:333-607). The series can be described thus: ELONA. The following applies: tags: from Dr. Matthew Miller's lab, McMaster University.
Series [3] addresses SARS-CoV-1 spike protein (SARS-CoV-1, UniProt P59594 P59594:14-1195). The experiment in a line: ELONA. The following applies: tags: from Dr. Matthew Miller's lab, McMaster University; label: biotin.
Series [4] concerns the target Spike RBD of seasonal coronavirus 229E (Human coronavirus 229E, UniProt P15423 P15423:293-435). The series can be described thus: ELONA. The following applies: tags: from Dr. Matthew Miller's lab, McMaster University.
In series [5] the target is T2, Bovine serum albumin (BSA) (Bos taurus, UniProt P02769 P02769:25-607). The series can be described thus: ELONA. The following applies: tags: Sigma-Aldrich A7906.
T2 sequence (P02769 25-607, one chain of several): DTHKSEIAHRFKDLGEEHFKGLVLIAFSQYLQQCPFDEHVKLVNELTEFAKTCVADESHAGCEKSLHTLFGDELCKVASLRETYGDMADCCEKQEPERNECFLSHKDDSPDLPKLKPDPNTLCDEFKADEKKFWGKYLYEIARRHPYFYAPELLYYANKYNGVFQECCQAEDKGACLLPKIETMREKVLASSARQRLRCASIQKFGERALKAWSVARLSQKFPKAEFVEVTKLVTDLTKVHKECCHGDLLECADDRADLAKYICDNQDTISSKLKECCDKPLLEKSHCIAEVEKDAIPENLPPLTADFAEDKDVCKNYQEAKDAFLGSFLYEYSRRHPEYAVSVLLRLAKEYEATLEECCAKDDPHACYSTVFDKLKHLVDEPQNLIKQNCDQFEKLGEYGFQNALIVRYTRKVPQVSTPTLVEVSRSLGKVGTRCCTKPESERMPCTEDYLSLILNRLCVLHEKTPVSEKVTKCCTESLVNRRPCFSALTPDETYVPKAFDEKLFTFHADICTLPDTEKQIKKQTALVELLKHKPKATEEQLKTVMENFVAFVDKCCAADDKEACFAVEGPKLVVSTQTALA
Series [6] deals with SARS-CoV-2 spike S1 subunit (SARS-CoV-2, UniProt P0DTC2 P0DTC2:14-685). The series can be described thus: filter.
Series [7] deals with VEGF165 (UniProt P15692-4 P15692-4:27-191). The series can be described thus: filter. The following applies: chain copies: 2 (stated dimeric).
VEGF165, sequence (P15692 other isoform, or with tags, fused parts or gaps): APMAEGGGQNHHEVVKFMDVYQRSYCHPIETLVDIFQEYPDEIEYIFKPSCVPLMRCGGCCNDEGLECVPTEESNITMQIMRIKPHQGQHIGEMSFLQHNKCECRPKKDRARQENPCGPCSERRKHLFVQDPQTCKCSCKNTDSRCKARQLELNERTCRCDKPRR
Series [8] deals with T2, Bovine serum albumin (BSA). The series can be described thus: filter; dot blot, no binding. The following applies: tags: Sigma-Aldrich A7906; label: 5'-32P.

Spike RBD of seasonal coronavirus 229E, sequence (P15423 293-435, one chain of several): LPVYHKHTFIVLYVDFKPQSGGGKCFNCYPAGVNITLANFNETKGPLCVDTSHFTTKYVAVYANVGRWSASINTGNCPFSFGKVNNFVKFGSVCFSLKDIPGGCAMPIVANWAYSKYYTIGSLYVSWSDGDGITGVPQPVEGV
Spike RBD of seasonal coronavirus OC43, sequence (P36334 333-607, one chain of several): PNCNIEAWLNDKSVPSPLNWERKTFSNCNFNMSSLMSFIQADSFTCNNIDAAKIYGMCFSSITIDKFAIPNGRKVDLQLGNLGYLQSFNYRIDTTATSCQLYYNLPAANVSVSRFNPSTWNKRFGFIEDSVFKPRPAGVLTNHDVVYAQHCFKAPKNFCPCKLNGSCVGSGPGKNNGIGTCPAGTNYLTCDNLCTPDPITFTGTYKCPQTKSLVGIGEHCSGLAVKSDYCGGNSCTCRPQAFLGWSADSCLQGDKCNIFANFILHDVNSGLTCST

B1: TMSA52-B (ssDNA)
DNA: TTACGTCAAGGTGTCACTCCGTAGGGTTTGGCTCCGGGCCTGGCGTCGGTCGTCTCTCGCGAAGCATCTCTTTGGCGTGTTTTTTTTTTTTTTT
modifications: three identical arms joined by Trebler, root TTTTT-Biotin
On to B1, for which the binding result in series [1], in series [2], in series [3], in series [4] and in series [5] was “no binding” in each case.
On to CGAAGCATCTCGTGTCACTCCGTAGGGTTTGGCTCCGGGCCTGGCGTCG (ssDNA) [MSA52T8], for which, in series [6], the Kd was 6.5 nM.
In series [7], GCCCGTCTTCCAGACAAGAGTGCAGGGC (ssDNA) [H1A] had a dissociation constant Kd of 21.3 nM.
Same read-out and setting: the same measure for GCCCGTCTTCCAGACAAGAGTGCAGGGCTTTTTCTCTCGC (ssDNA, three identical arms joined by Trebler, root TTTTT-Biotin) [Trimeric (trident) H1A]: 0.27 nM.

B2: Trimeric (trident) RHA06 (ssDNA)
DNA: GGGTTTGGGTTGGGTTGGGTTTTTGGGTTTGGGTTGGGTTGGGAAAAATTTTTCTCTCGC
modifications: three identical arms (SEQ 12) joined by Trebler, root TTTTT-Biotin
B2: the binding result in series [8] is “no binding”.

B3: TMSA52T8 (ssDNA)
DNA: CGAAGCATCTCGTGTCACTCCGTAGGGTTTGGCTCCGGGCCTGGCGTCGTTTTTCTCTCGC
modifications: three identical arms joined by Trebler, root TTTTT-Biotin
With B3, the Kd in series [6] stood at 0.21 nM.
